Reference: IntAct's records for PubMed 31515488

B1: Phospholipase A and acyltransferase 4 (Homo sapiens), Q9UL19 (parent)
chain: MASPHQEPKPGDLIEIFRLGYEHWALYIGDGYVIHLAPPSEYPGAGSSSVFSVLSNSAEVKRERLEDVVGGCCYRVNNSLDHEYQPRPVEVIISSAKEMVGQKMKYSIVSRNCEHFVTQLRYGKSRCKQVEKAKVEVGVATALGILVVAGCSFAIRRYQKKATA
B2: Splicing factor 45 (Homo sapiens), Q96I25 (parent)
chain: MSLYDDLGVETSDSKTEGWSKNFKLLQSQLQVKKAALTQAKSQRTKQSTVLAPVIDLKRGGSSDDRQIVDTPPHVAAGLKDPVPSGFSAGEVLIPLADEYDPMFPNDYEKVVKRQREERQRQRELERQKEIEEREKRRKDRHEASGFARRPDPDSDEDEDYERERRKRSMGGAAIAPPTSLVEKDKELPRDFPYEEDSRPRSQSSKAAIPPPVYEEQDRPRSPTGPSNSFLANMGGTVAHKIMQKYGFREGQGLGKHEQGLSTALSVEKTSKRGGKIIVGDATEKDASKKSDSNPLTEILKCPTKVVLLRNMVGAGEVDEDLEVETKEECEKYGKVGKCVIFEIPGAPDDEAVRIFLEFERVESAIKAVVDLNGRYFGGRVVKACFYNLDKFRVLDLAEQV
partner: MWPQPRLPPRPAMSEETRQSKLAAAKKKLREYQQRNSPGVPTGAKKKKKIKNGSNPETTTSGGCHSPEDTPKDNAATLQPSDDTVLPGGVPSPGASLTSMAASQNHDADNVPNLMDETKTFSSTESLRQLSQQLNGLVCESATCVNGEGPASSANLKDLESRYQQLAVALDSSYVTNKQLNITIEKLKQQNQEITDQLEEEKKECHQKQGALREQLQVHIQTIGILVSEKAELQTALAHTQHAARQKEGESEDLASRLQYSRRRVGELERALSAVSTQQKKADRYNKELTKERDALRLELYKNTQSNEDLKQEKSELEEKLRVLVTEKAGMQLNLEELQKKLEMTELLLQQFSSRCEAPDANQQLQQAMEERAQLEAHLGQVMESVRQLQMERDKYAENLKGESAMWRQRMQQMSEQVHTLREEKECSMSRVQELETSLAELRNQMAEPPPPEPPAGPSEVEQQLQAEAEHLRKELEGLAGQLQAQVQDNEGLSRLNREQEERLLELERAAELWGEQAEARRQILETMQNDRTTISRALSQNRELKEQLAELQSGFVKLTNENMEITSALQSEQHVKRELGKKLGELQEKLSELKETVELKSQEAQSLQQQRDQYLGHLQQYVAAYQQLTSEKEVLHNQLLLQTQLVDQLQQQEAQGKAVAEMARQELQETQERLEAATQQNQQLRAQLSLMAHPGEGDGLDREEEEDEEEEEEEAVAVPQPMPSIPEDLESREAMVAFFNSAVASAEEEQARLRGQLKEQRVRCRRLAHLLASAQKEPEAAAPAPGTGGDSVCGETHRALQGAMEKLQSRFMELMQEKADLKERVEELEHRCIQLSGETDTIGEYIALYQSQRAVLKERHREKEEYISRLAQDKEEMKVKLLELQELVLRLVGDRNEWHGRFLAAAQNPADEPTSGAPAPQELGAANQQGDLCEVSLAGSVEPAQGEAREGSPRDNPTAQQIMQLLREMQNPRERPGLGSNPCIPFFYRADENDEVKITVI
B3: Protein phosphatase 1 regulatory inhibitor subunit 16B (Homo sapiens), Q96T49 (parent)
chain: MASHVDLLTELQLLEKVPTLERLRAAQKRRAQQLKKWAQYEQDLQHRKRKHERKRSTGGRRKKVSFEASVALLEASLRNDAEEVRYFLKNKVSPDLCNEDGLTALHQCCIDNFEEIVKLLLSHGANVNAKDNELWTPLHAAATCGHINLVKILVQYGADLLAVNSDGNMPYDLCEDEPTLDVIETCMAYQGITQEKINEMRVAPEQQMIADIHCMIAAGQDLDWIDAQGATLLHIAGANGYLRAAELLLDHGVRVDVKDWDGWEPLHAAAFWGQMQMAELLVSHGASLSARTSMDEMPIDLCEEEEFKVLLLELKHKHDVIMKSQLRHKSSLSRRTSSAGSRGKVVRRASLSDRTNLYRKEYEGEAILWQRSAAEDQRTSTYNGDIRETRTDQENKDPNPRLEKPVLLSEFPTKIPRGELDMPVENGLRAPVSAYQYALANGDVWKVHEVPDYSMAYGNPGVADATPPWSSYKEQSPQTLLELKRQRAAAKLLSHPFLSTHLGSSMARTGESSSEGKAPLIGGRTSPYSSNGTSVYYTVTSGDPPLLKFKAPIEEMEEKVHGCCRIS
B4: Regulator of G-protein signaling 20 (Homo sapiens), O76081 (parent)
chain: MPQLSQDNQECLQKHFSRPSIWTQFLPLFRAQRYNTDIHQITENEGDLRAVPDIKSFPPAQLPDSPAAPKLFGLLSSPLSSLARFFSHLLRRPPPEAPRRRLDFSPLLPALPAARLSRGHEELPGRLSLLLGAALALPGRPSGGRPLRPPHPVAKPREEDATAGQSSPMPQMGSERMEMRKRQMPAAQDTPGAAPGQPGAGSRGSNACCFCWCCCCSCSCLTVRNQEDQRPTIASHELRADLPTWEESPAPTLEEVNAWAQSFDKLMVTPAGRNAFREFLRTEFSEENMLFWMACEELKKEANKNIIEEKARIIYEDYISILSPKEVSLDSRVREVINRNMVEPSQHIFDDAQLQIYTLMHRDSYPRFMNSAVYKDLLQSLSEKSIEA
B5: Translocator protein (Homo sapiens), P30536 (parent)
chain: MAPPWVPAMGFTLAPSLGCFVGSRFVHGEGLRWYAGLQKPSWHPPHWVLGPVWGTLYSAMGYGSYLVWKELGGFTEKAVVPLGLYTGQLALNWAWPPIFFGARQMGWALVDLLLVSGAAAATTVAWYQVSPLAARLLYPYLAWLAFTTTLNYCVWRDNHGWRGGRRLPE
partner: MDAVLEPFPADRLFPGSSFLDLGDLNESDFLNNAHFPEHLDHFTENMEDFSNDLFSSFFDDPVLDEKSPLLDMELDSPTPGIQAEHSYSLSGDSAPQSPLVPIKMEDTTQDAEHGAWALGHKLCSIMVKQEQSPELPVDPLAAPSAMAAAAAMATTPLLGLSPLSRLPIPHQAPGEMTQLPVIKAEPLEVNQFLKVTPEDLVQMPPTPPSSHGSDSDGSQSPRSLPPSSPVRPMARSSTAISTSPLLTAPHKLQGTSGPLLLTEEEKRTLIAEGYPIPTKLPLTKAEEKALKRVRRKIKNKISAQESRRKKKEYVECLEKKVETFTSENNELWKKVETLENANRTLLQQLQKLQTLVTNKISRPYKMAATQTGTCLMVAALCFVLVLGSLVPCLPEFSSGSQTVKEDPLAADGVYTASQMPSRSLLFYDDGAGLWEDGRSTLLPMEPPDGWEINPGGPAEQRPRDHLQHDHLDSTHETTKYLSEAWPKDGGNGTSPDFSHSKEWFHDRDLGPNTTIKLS
B6: Keratin, type II cytoskeletal 6A (Homo sapiens), P02538 (parent)
chain: MASTSTTIRSHSSSRRGFSANSARLPGVSRSGFSSVSVSRSRGSGGLGGACGGAGFGSRSLYGLGGSKRISIGGGSCAISGGYGSRAGGSYGFGGAGSGFGFGGGAGIGFGLGGGAGLAGGFGGPGFPVCPPGGIQEVTVNQSLLTPLNLQIDPTIQRVRAEEREQIKTLNNKFASFIDKVRFLEQQNKVLETKWTLLQEQGTKTVRQNLEPLFEQYINNLRRQLDSIVGERGRLDSELRGMQDLVEDFKNKYEDEINKRTAAENEFVTLKKDVDAAYMNKVELQAKADTLTDEINFLRALYDAELSQMQTHISDTSVVLSMDNNRNLDLDSIIAEVKAQYEEIAQRSRAEAESWYQTKYEELQVTAGRHGDDLRNTKQEIAEINRMIQRLRSEIDHVKKQCANLQAAIADAEQRGEMALKDAKNKLEGLEDALQKAKQDLARLLKEYQELMNVKLALDVEIATYRKLLEGEECRLNGEGVGQVNISVVQSTVSSGYGGASGVGSGLGLGGGSSYSYGSGLGVGGGFSSSSGRAIGGGLSSVGGGSSTIKYTTTSSSSRKSYKH

Variants of: B1
Details: with sgta_human SGTA

effect of a mutation on the interaction	Variant
disrupting interaction strength	T141M

Variants of: B2
Details: with goga2_human GOLGA2, Q08379

effect of a mutation on the interaction	Variant
with no effect	T224I

Variants of: B3
Details: with crx_human CRX

effect of a mutation on the interaction	Variant
with no effect	P519S

Variants of: B3
Details: with ikzf3_human IKZF3, Q9UKT9
ikzf3_human IKZF3, Q9UKT9, sequence (Q9UKT9 whole entry): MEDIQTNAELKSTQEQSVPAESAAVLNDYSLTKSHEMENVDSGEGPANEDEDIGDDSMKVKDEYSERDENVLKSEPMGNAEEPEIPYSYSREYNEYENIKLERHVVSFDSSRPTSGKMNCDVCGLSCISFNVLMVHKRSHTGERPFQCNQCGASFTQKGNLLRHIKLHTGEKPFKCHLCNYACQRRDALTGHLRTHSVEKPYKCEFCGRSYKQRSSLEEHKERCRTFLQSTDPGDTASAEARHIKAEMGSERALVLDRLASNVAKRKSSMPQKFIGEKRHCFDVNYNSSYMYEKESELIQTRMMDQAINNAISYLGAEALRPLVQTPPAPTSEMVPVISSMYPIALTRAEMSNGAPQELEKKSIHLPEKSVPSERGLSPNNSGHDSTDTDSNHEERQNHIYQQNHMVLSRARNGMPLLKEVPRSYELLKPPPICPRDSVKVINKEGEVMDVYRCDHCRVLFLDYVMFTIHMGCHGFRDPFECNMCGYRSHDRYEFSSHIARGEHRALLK

effect of a mutation on the interaction	Variant
with no effect	P519S

Variants of: B3
Details: with sf3b4_human SF3B4, Q15427
sf3b4_human SF3B4, Q15427, sequence (Q15427 whole entry): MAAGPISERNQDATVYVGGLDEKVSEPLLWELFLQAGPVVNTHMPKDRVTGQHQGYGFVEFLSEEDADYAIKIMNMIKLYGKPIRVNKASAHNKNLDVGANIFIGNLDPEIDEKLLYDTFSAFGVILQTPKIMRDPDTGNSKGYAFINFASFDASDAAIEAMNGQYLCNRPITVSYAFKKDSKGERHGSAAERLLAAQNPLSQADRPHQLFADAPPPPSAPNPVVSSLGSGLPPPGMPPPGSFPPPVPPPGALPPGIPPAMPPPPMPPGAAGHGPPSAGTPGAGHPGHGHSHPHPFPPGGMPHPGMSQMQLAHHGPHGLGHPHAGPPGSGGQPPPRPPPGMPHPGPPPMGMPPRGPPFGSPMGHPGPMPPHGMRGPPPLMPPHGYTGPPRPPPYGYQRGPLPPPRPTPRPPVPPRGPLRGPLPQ

effect of a mutation on the interaction	Variant
with no effect	P519S

Variants of: B4
Details: with otx1_human OTX1, P32242
otx1_human OTX1, P32242, sequence (P32242 whole entry): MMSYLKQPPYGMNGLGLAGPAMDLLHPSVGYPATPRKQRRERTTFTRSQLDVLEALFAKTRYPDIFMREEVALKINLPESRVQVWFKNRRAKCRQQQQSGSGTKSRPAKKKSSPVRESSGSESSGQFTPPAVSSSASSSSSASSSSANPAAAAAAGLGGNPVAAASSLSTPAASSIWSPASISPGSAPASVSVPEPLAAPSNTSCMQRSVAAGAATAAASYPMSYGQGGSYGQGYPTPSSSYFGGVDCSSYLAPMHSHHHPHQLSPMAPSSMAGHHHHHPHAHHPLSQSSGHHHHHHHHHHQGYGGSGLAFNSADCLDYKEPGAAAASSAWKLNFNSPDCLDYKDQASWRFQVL

effect of a mutation on the interaction	Variant
with no effect	H347Y

Variants of: B4
Details: with co8a1_human COL8A1, P27658
co8a1_human COL8A1, P27658, sequence (P27658 whole entry): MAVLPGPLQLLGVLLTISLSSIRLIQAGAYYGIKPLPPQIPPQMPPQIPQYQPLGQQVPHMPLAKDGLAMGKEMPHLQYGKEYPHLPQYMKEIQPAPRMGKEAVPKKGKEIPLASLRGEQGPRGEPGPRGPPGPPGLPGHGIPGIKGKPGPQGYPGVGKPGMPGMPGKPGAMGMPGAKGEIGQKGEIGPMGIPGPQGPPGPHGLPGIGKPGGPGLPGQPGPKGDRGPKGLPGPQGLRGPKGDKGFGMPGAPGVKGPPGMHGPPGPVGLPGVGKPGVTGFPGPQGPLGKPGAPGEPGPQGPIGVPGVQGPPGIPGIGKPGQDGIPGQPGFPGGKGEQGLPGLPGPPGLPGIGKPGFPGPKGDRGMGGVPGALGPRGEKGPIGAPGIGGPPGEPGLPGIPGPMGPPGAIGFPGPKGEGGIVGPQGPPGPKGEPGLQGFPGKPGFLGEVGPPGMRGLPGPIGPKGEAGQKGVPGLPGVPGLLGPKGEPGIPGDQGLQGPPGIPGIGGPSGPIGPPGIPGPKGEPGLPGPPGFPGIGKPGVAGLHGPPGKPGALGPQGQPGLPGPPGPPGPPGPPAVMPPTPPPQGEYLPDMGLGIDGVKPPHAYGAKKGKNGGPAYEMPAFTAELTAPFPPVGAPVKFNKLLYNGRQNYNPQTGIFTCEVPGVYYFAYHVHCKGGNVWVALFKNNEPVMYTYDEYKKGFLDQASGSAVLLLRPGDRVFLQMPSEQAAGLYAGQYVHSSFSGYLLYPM

effect of a mutation on the interaction	Variant
with no effect	H347Y

Variants of: B4
Details: with hxa1_human HOXA1, P49639
hxa1_human HOXA1, P49639, sequence (P49639 whole entry): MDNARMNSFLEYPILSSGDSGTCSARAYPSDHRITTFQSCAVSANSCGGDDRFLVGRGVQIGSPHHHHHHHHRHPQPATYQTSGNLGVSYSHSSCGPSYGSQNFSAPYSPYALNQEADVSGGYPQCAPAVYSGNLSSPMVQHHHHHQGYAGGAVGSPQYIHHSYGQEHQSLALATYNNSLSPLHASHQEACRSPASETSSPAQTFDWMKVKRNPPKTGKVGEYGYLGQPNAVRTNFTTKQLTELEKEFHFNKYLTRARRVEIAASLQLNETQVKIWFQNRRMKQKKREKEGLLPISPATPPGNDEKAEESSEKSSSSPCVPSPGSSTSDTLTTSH

effect of a mutation on the interaction	Variant
with no effect	H347Y

Variants of: B5
Details: with cr3l1_human CREB3L1, Q96BA8

effect of a mutation on the interaction	Variant
disrupting interaction strength	A119V

Variants of: B6
Details: with KRT17, Q04695
KRT17, Q04695, sequence (Q04695 whole entry): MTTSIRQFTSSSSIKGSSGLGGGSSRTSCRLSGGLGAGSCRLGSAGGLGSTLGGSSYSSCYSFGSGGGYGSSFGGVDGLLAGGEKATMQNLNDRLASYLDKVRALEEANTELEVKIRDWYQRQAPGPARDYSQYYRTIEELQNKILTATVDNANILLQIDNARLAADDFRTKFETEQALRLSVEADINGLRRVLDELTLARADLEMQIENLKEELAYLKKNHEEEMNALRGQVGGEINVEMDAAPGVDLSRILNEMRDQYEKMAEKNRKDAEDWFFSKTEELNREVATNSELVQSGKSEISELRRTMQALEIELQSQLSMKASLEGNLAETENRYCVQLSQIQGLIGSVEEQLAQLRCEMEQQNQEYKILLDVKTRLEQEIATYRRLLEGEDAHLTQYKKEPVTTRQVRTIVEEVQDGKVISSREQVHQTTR

effect of a mutation on the interaction	Variant
with no effect	A335T

Variants of: B6
Details: with tfp11_human TFIP11, Q9UBB9
tfp11_human TFIP11, Q9UBB9, sequence (Q9UBB9 whole entry): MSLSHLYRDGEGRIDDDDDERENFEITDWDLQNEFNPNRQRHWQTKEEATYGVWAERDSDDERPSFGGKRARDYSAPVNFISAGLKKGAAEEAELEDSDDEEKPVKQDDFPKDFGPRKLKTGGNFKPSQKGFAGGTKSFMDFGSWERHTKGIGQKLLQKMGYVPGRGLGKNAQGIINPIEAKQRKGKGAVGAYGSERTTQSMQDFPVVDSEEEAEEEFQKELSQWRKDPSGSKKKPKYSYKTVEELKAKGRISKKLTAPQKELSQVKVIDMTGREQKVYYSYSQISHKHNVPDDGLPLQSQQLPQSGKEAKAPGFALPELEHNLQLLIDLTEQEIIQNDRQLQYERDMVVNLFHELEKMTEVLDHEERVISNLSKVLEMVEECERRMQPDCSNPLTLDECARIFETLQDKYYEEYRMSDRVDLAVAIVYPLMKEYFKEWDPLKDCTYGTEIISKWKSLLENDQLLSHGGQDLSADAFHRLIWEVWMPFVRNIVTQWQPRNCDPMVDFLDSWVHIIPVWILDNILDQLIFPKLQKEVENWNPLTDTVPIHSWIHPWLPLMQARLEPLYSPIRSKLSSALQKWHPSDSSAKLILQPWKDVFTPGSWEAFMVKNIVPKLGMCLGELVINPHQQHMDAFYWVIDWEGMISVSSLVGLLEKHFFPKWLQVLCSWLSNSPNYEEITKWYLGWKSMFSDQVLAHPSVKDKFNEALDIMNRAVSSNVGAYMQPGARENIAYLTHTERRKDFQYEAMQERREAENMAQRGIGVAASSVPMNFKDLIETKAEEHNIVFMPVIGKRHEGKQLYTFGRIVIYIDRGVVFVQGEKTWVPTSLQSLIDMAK

effect of a mutation on the interaction	Variant
with no effect	A335T

Variants of: B6
Details: with KRT15, P19012
KRT15, P19012, sequence (P19012 whole entry): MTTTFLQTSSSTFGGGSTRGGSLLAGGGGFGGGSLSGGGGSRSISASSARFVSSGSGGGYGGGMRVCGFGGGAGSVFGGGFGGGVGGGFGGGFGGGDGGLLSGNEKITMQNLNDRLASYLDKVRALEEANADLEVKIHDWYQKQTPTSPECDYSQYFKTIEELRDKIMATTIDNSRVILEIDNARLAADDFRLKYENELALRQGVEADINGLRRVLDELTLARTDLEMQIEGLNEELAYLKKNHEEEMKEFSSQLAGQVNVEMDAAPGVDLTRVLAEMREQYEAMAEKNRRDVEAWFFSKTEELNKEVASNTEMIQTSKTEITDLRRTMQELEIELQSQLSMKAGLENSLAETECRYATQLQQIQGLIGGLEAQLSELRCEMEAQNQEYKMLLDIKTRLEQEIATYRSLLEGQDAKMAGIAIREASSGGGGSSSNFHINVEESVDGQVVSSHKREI

effect of a mutation on the interaction	Variant
with no effect	A335T
